Tests used:
[1] = tested on: HUVEC; test: Serum withdrawal-induced cell death, Cell Death ELISA; format: cell-based, human; conditions: F12 plus 0.1% FBS, 16 hours; clustered Vasculotide at 500 pM (p=0.002) vs non-treated cells
Method: Based on the fact that clustered Vasculotide strongly activates the anti apoptotic protein AKT (see Example 3), the ability of Vasculotide to protect ECs from serum withdrawal-induced death was examined. To do so, HUVEC were maintained in F12 media plus 0.1% FBS for 16 hours in the presence of various concentrations of unclustered or clustered Vasculotide, followed by analysis of cell apoptosis via cell death ELISA. Analysis of apoptosis was performed using Cell Death ELISA Plus (Roche) according to manufacturers' specifications. The results are shown in FIG. 2A, in which values were normalized to basal levels of cell death for HUVECs maintained in full 10% FBS, growth factor supplemented F12 media. The results shown represent the mean of three replicates plus or minus 1 SD. Student's T-test was used for statistical analysis with P value indicated.

[2] = biological target: T1, Tie 2 (Homo sapiens, UniProt Q02763); test: Tie 2 activation (pY992 Tie 2 immunoblot) in HUVEC; format: cell-based; parameters: downstream signalling pathways in human umbilical vein endothelial cells (HUVEC) (Cambrex, N.J.); host or cells: HUVEC, passage 3-9
Method: Having established that Vasculotide was able to bind Tie 2 (see Example 2), the ability of Vasculotide, when clustered with avidin in a 4:1 ratio (Vasculotide:avidin), to activate the Tie 2 receptor was tested by examining several well established downstream signalling pathways in human umbilical vein endothelial cells (HUVEC) (Cambrex, N.J.). Such signalling pathways are described in, for example, Kim, I. et al. (2000) Circ. Res. 9:952-959; Fujikawa, K. et al. (1999) Exp. Cell. Res. 2:663-672; Babaei, S. et al. (2003) Am. J. Pathol. 6:1927-1936.
HUVEC were grown on 6-well or 10 cm plates (Nunc) coated with gelatin (Sigma). HUVEC were cultured in F12 growth medium containing 10% fetal bovine serum (FBS), 0.1 mg/ml heparin sulphate, 1× penicillin, 1× streptomycin, 1× glutamine, VEGF 10 ng/ml, EGF 10 ng/ml, bFGF 5 ng/ml. All HUVEC were used between passage 3-9.
HUVEC were stimulated with one of either Ang 1 (R&D Systems), Vasculotide, avidin or clustered Vasculotide (preclustered with a 4:1 molar ratio of peptide:avidin in PBS for 2 hours at 4° C.) at various doses. Stimulations with Vasculotide were performed in full serum containing growth media for 15 minutes unless otherwise indicated. Cell lysate preparations and immunoblot analysis were performed by standard methods. Antibodies used for immunoblotting (in this and/or subsequent Examples) were monoclonal anti Tie 2 (Pharminogen), polyclonal anti pY992 Tie 2, (Cell Signaling Technology), polyclonal anti MAPK (Cell Signaling Technology), monoclonal anti phospho MAPK (Cell Signaling Technology), polyclonal anti AKT (Cell Signaling Technology), polyclonal anti pS473 AKT (Cell Signaling Technology), monoclonal anti pS1177 eNOS (BD Biosciences), polyclonal anti pY397 FAK (Biosource), polyclonal anti FAK (Santa Cruz), polyclonal anti smooth muscle actin-Cy3 direct conjugate (Dako), polyclonal anti PECAM (Pharminogen) and polyclonal anti smooth muscle actin (Sigma).
To examine Tie 2 activation kinetics, HUVEC were stimulated with native Ang 1 or clustered Vasculotide for various times. Stimulation was performed in 10% FBS. […] Overall, activation of the receptor by either Ang 1 or clustered Vasculotide followed a very similar time course with phosphorylation returning to almost basal levels sometime after 2 hours.

[3] = biological target: T1, Tie 2; test: In vitro pull down assay of Tie 2 from EaHy926 cell lysate; format: binding; parameters: a cell lysate of EaHy926 endothelial cells (which express high levels of Tie 2) was prepared; endogenous in cells; host or cells: EaHy926 endothelial cells
Method: In this example, the ability of Vasculotide to bind the Tie 2 receptor, despite the engineered modifications, was tested using an in vitro pull down assay. In the pull down assay, a cell lysate of EaHy926 endothelial cells (which express high levels of Tie 2) was prepared in Phospho Lipase Cγ lysis buffer (50 mM Hepes buffer pH 7.5, 150 mM NaCl, 10% glycerol, 1% Triton X-100, 1.5 mM MgCl2, 1.0 mM EGTA, 10 mM NaPPi, […], 2 mM Na3VO4, 1× aprotinin, 1× leupeptin and 1×PMSF). The whole cell lysate was mixed with either unclustered biotinylated Vasculotide or biotinylated irrelevant peptide. The biotinylated peptides then were isolated with avidin agarose and subsequently tested for their ability to precipitate Tie 2 via standard immunoblot analysis using anti-Tie 2 antibody.

T1 sequence (Q02763 23-1124): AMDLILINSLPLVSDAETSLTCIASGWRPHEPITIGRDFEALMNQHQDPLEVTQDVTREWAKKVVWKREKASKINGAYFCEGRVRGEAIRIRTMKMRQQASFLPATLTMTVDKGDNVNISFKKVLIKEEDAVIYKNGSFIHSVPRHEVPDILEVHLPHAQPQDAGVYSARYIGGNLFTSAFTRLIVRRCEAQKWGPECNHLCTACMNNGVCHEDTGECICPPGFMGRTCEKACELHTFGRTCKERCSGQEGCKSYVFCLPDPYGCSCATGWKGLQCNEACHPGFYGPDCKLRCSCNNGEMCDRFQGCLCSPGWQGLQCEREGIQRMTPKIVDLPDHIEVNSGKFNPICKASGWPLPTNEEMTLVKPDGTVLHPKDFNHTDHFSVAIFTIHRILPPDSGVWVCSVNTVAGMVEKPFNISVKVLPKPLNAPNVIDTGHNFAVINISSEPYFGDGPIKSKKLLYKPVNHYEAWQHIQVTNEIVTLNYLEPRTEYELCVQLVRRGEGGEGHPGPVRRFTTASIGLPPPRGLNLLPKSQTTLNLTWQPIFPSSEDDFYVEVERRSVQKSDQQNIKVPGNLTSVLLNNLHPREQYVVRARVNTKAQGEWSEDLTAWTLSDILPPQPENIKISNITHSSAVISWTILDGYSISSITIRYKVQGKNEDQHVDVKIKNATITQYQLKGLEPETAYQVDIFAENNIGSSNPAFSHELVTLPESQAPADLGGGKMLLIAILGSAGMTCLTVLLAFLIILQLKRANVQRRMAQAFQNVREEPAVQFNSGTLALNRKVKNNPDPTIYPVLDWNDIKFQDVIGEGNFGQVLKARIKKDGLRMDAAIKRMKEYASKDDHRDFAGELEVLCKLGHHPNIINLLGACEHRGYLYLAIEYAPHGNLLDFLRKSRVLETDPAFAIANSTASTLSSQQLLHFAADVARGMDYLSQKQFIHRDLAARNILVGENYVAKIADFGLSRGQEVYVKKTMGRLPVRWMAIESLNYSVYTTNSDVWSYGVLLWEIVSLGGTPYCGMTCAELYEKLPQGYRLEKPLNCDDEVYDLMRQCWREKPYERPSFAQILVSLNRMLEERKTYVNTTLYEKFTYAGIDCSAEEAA

Substance	Apoptosis / survival after serum withdrawal [1]	Tie 2 phosphorylation without preclustering ([2]; avidin alone and unclustered Vasculotide)	Precipitation of Tie 2 (avidin agarose pull down, anti-Tie 2 immunoblot) ([3]; EaHy926 whole cell lysate, unclustered biotinylated peptide)	Ability to activate Tie 2 phosphorylation, time course, versus Ang 1 (400 ng/ml) ([2]; 2 nM, 10% FBS)	Tie 2 receptor activation at high concentration ([2]; 50 nM)	Optimal concentration for Tie 2 activation (pY992 Tie 2) ([2]; 15 minutes)	Competition for available Tie 2 in the pull down ([3]; ten fold excess, preclustered with soluble avidin)
Vasculotide: biotinylated T7 peptide-PEG: Cys-His-His-His-Arg-His-Ser-Phe (SEQ ID NO: 2) conjugated to EZ-link-PEO-maleimide-biotin	no effect on survival	only when preclustered with avidin was Vasculotide able to stimulate Tie 2 phosphorylation	able to precipitate Tie 2				
clustered Vasculotide: Vasculotide clustered with avidin in a 4:1 ratio, an obligate tetrameric compound	statistically significant decrease in apoptosis			compared favorably to Ang 1	not capable of activating Tie 2 receptor activity	5-10 nM	able to abolish this interaction

From patent publication US8957022B2, “Multimeric tie 2 agonists and uses thereof in stimulating angiogenesis” (Sunnybrook Health Sciences Centre, priority 2006, dated 2015)
